Data set [1] deals with T1, GST-GSG-CreGO (glycolate oxidase CreGO) (Chlamydomonas reinhardtii, UniProt F8WQN2, Y27S/V111G, form not given).
T1 construct: gene CHLRE_03g171300v5
Particulars: read-out: GST-GSG-CreGO-Y27S/V212R/V111G; 10 mM phenylhydrazine, 100 mM PBS pH 6.5, 40 °C; O2 as co-substrate; substrate range 0-100 mM; V111G is misprinted V11G in parts of the text.

Substrate in data set [2]: O=C(O)CO
In words: purified protein. Particulars: 10 mM phenylhydrazine, 100 mM PBS pH 6.5, 40 °C, O2 as co-substrate, substrate range 0-100 mM.

Experimental findings from publication PMC10385363, “Enhancing the Catalytic Activity of Glycolate Oxidase from Chlamydomonas reinhardtii through Semi-Rational Design” (Microorganisms, 2023) are described below.

T1 sequence (F8WQN2 whole entry Y27S/V111G, form open): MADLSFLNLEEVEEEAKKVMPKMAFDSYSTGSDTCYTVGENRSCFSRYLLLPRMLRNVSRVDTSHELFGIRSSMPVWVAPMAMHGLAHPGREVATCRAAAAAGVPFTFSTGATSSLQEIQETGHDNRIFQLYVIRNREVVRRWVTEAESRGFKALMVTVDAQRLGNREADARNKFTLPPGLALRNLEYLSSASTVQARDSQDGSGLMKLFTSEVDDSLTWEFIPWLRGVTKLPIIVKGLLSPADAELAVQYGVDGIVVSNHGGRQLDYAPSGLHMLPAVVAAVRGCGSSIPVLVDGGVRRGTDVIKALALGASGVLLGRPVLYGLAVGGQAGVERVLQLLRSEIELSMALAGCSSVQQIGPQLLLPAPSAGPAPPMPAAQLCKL

As for `O=C(O)CO` [sodium glycolate], in data set [1], the Km worked out at 600 ± 40 µM.

B1: GST-GSG-CreGO (glycolate oxidase CreGO) (Chlamydomonas reinhardtii) (protein)
chain: MADLSFLNLEEVEEEAKKVMPKMAFDYYSTGSDTCYTVGENRSCFSRYLLLPRMLRNVSRVDTSHELFGIRSSMPVWVAPMAMHGLAHPGREVATCRAAAAAGVPFTFSTVATSSLQEIQETGHDNRIFQLYVIRNREVVRRWVTEAESRGFKALMVTVDAQRLGNREADARNKFTLPPGLALRNLEYLSSASTVQARDSQDGSGLMKLFTSEVDDSLTWEFIPWLRGVTKLPIIVKGLLSPADAELAVQYGVDGIVVSNHGGRQLDYAPSGLHMLPAVVAAVRGCGSSIPVLVDGGVRRGTDVIKALALGASGVLLGRPVLYGLAVGGQAGVERVLQLLRSEIELSMALAGCSSVQQIGPQLLLPAPSAGPAPPMPAAQLCKL
In the case of B1, in data set [2], the Km turned out to be 1000 ± 50 µM, the Vmax turned out to be 7.2 µmol/min/mg, the catalytic constant (kcat) is 4.9 s⁻¹ and the kcat/Km turned out to be 4900 M⁻¹ s⁻¹.

The Vmax is the rate approached at saturating substrate. Broadly, the kcat is the number of substrate molecules converted per active site and unit of time at saturation. A word on the kcat/Km: it is the second-order rate constant that governs catalysis at low substrate concentration.
